Experimental data from article PMC2652481.

Biological target: TAF-4 (UniProt O61707)
Assay: membrane recruitment of GFP::TAF-4 by Myr::FLAG::OMA-1-FL
Conditions: sites T239

Substance	other: percent of cells with membrane GFP::TAF-4 (reference: kinase-dead MBK-2 (Y237A) coexpressed)	other: percent of cells with membrane GFP::TAF-4 (reference: no MBK-2 coexpressed)	other: percent of cells with membrane GFP::TAF-4 (reference: wild type OMA-1-FL with MBK-2)
OMA-1 (from UniProt G5EC86) MBK-2 coexpressed	stronger; reference 16	stronger; reference 8	
OMA-1 (from UniProt G5EC86) T239A with MBK-2			weaker; reference 48
